# According to the nanobody polyreactivity screen of Harvey et al. (2022):
# Assay: yeast display, Sf9 membrane polyspecificity reagent, FACS + sequencing; frameworks hold sequencing errors
# In short: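 In a synthetic yeast display library (Saccharomyces cerevisiae BJ5465), nanobody expression was induced with galactose for 36–48 hours. FACS gates were set low and high (top ~1%) using anti-HA fluorescence for expression and streptavidin fluorescence for binding of the Sf9 membrane reagent. Each polyreactivity label is drawn from the gate of origin.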
row,Sequence,polyreactivity (PSR sort gate)
1,QVQLVESGGGLVQAGGSLRLSCAASGFIFNYYTMGWYRQAPGKEREFVAAIRRSGTRTYYADSVKGRFTISRDNAKNTVYLQMNSLKPEDTAVYYCAARGTSPGHGTYTRTRGQRYYYWGQGTQVTVSS,high polyreactivity
2,QVQLVESGGGLVQAGGSLRLSCAASGFIFPDYAMGWYRQAPGKERELVAAISFRDGSTYYADSVKGRFTISRDNAKNTVYFQINSLKPEDTAVYYCNAGPQYDVHEYYYWGQGSQVTVSS,low polyreactivity
3,QVQLVESGGGLVQAGGSLRLSCAASGFIFPFYAMGWYRQAPGKERELVAVIRTSSDRTYYADSVKGRFTISRDNAKNTVYLQMNSLKPEDTAVYYCAAETYRLFDYLGQGTQVTVSS,low polyreactivity
4,QVQLVESGGGLVQAGGSLRLSCAASGFIFPGYAMGSYRQAPGKERELVAAISRRGGRTYYADSVKGRFTISRDNAKNTVYLQMNSLKPEDTAVYYCAAVVQSTQYICDYWGQGTQVTVSS,high polyreactivity
5,QVQLVESGGGLVQAGGSLRLSCAASGFIFPGYTRGWYRQAPGKEWELVAAISRGSSTYYADSVKGRFTISRDNAKNTVYLQMNSLKPEDTSVYYCNTRVYAITLYDYWGQGTQVTVSS,low polyreactivity
6,QVQLVESGGGLVQAGGSLRLSCAASGFIFPHYAMGGYRQAPGKERELIAAISKSGDSTYYADSVKGRFTISRDNAKNTVYLQMNSLKPEDTAVYYCARRGRSLRWKYDYWGQGTQVTVSS,low polyreactivity
7,QVQLVESGGGLVQAGGSLRLSCAASGFIFPLYAMGWYRQAPGKERELVAAITWRGDTTSYADSVKGSFTISRDNAKNTVYLQMNSLKPEDTAVYYCAAEFYDWWYYGGGEYWGQGTQVTVSS,high polyreactivity
8,QVQLVESGGGLVQAGGSLRLSCAASGFIFPRYAMGWYRPAPGTERELVAAISRSGGITRYADSVKGRFTISRDNAKNTVYLQINSLKPEDTAVYYCAAYIQGWVTAEWVRDDYWGQGTQVTVSS,high polyreactivity
9,QVQLVESGGGLVQAGGSLRLSCAASGFIFPSNAMGWYRQAPGKERELVAAISSRGTRTYYADSVKGRFTISRDNAKNTVYLQMNSLKPEDTAVYYCAKYGYWGQGTQVTVSS,high polyreactivity
10,QVQLVESGGGLVQAGGSLRLSCAASGFIFPSNSMGWYRQAPGKEREFVAAISSRGGSTTYADSVKGRFTISRDYAKNTVYLQMNSLKPEDTAVYYCARDWYYYPQYRQRYYYWGQGTQVTVSS,high polyreactivity
11,QVQLVESGGGLVQAGGSLRLSCAASGFIFPSYAMGWYRQAPGKERELVAAISWTGGTYYADSEKGRFTISRDNAKNTVYFQMNSRKPEDTAVYYCAVRYKRKGSGYRTNAYDYWGQGTQVTVSS,high polyreactivity
12,QVQLVESGGGLVQAGGSLRLSCAASGFIFPTNTMGWYRQAPGKEREFVARITRSGTNTYYADSVKGRFTISRDNAKNTVYLQMNSLKPEDTAVYYCARRGTSSYRRYWLDSASNMDYWGQGTQVTVSS,high polyreactivity
13,QVQLVESGGGLVQAGGSLRLSCAASGFIFPVNAMGWYRQAPGKERELVAAITSSGGDTYYADSVKGRFTISRDNAKNTVYLQMNSLKPEDTAVYYCAAEYTQEQEDYDYWGQGTQVTVSS,low polyreactivity
14,QVQLVESGGGLVQAGGSLRLSCAASGFIFPVNGMGWYRQAPGKERELVAGITRTGTSTYYADSVKGRFTISRDNAKYTVYLQMNSLKPEDTAVYYCAADLYTGRTKYWEFESWGQGTQVTVSS,low polyreactivity
15,QVQLVESGGGLVQAGGSLRLSCAASGFIFPYYTMGWYGQARGKERELVAAISYSGGSTYYADSVKGRFTISRDKAKNTVYLQMNSLKPEDTAVYYCNADPPLIVYKVWFLLDYWGQGTQVTVTS,high polyreactivity
16,QVQLVESGGGLVQAGGSLRLSCAASGFIFQDNAMGWYRQAPGKERELVAAIRSTGSTNYADSVKGRFTISRDNAKNTVYLQMNSLKPEDTAVYYCNAGKYQSDTPSLVPTEYPAFYYWGQGTQVTVSS,low polyreactivity
17,QVQLVESGGGLVQAGGSLRLSCAASGFIFQDYAMGWYRQAPGKERELVAAITQSSGSTYYADSVKGRFTISRDNAKNTVYLQMNSLKPEDTAVYYCNTAYDFSRQASYDYWGQVTQVTVSS,low polyreactivity
18,QVQLVESGGGLVQAGGSLRLSCAASGFIFQKYAMGWYRQAPGKERELVAAISRSGGSTYYADSVKGRFTISRDNAKNTVYLQMNSLKPEDTAVYYCNAVYSTSRDYWGQGTQVTVSS,high polyreactivity
19,QVQLVESGGGLVQAGGSLRLSCAASGFIFQPYAMGWYRQAPGKERELVAAINFSGGSTYYADSVKGRFTISRDNAKNTVYLQMNSLKPEDTAVYYCARAGRYAAYSPFYYWGQGTQVTVSS,high polyreactivity
20,QVQLVESGGGLVQAGGSLRLSCAASGFIFQRYAMGWYRQAPGKERELVAAISWSGGITYYADSVKGRFTISRDNAKNTVYLQMNSLKPEDTAVYYCAAGLAVGDYYWGQGTQVTVSS,high polyreactivity
21,QVQLVESGGGLVQAGGSLRLSCAASGFIFQSYAMGWYRQAPGKERELVAAISSRGGSTYYADSVKGRFTISRDIAKNTVYLQMNSLKPEDTAVYYCAADLYGNEYDYWGQGTQVTVSS,low polyreactivity
22,QVQLVESGGGLVQAGGSLRLSCAASGFIFQSYAMGWYRQAPGKERQLVAAISYTGGSTYYADSVKGRFTISRDNAKNTVYLQMNSLKPEDTAVYYCARSYYTNGNALKRDYWGQGTQVTVSS,high polyreactivity

row,Sequence,polyreactivity (PSR sort gate)
1,QVQLVESGGGLVQAGGSLRLSCAASGFIFQTNVMGGYRQAPGKERELVAAISSGYSTYYADSVKGRFTISRDNAKNTVYLQMNSLKPEDTAVYNCAADVLGTTTTVGGFNYWGQGTQVTVSS,low polyreactivity
2,QVQLVESGGGLVQAGGSLRLSCAASGFIFQYYAMGWYRQAPGKERELVAAISFSGGSTYYADSVKGRFTISRANAKNTVYLPMNSLKPEDTAVYYCAAEVYSGGDYSGHDYYWGQGTQVTVSS,low polyreactivity
3,QVQLVESGGGLVQAGGSLRLSCAASGFIFQYYSMGWYRQAPGKERELVATITSRGGSTYYADSVKGRFTISRDNAKNTVYLQMNSLKPEDTAFYYCNARSSSPRKYGYWGQGTQVTVSS,high polyreactivity
4,QVQLVESGGGLVQAGGSLRLSCAASGFIFRAYAMGWYRQAPGKERELVAAISYSGGSTYYADSVKGRFTISRDNAKNTVYLQMNSLKPEDTAVYYCAALTIRVGSLGRDYWGQGTQVTVSS,low polyreactivity
5,QVQLVESGGGLVQAGGSLRLSCAASGFIFRDNAMGWYRQAPGKERELVAAISERGGRTYYADSVKGRFTISRDNAKNTVYLQMNSLKPEDTAVYYCAAEDIANFYYWGQGTQVTVSS,high polyreactivity
6,QVQLVESGGGLVQAGGSLRLSCAASGFIFRDYEMGWYRQAPGKERELVAAISWRGGTYYADSVKGRFTISRDNAKNTVYLQMNSLKPEDTAGYYCNATRYRLRPSGVRYKYNYWGQGTQVTVSS,low polyreactivity
7,QVQLVESGGGLVQAGGSLRLSCAASGFIFRFNAMGWYRQAPGKERELVAAITYRGITYYADSVKGRFTISRDNAKNTVYLQMNSLKPEDTAVYYCAKRTSARGLYGVYFGRYEYWGQGTQVTVSS,high polyreactivity
8,QVQLVESGGGLVQAGGSLRLSCAASGFIFRFYAMGWYRQAPGKEREVVAVISRSGGSTYYADSVKGRFTISRDHAKNTVYLQMNSLKPEDTAVYYCAATFYWDSVRRGDYDYWGQGTQVTGSS,high polyreactivity
9,QVQLVESGGGLVQAGGSLRLSCAASGFIFRGNARGWYRQAPGKERELVAAISVRGGRTYYADSVKGRFTISRDNAKNTVYLQMNSLKPEDTAVYDCAADLYNRGRGSSQSYRTGYDYWGQGTQVTVSS,high polyreactivity
10,QVQLVESGGGLVQAGGSLRLSCAASGFIFRGYAMGWYRQAPGKERELVAVISRSGTSTYYADSVKGRFTISRDNAKNTVYLQMNSLKPEDTAVYYCAKEVWPRYIRQAYLSGYESWGQGTQVTVSS,high polyreactivity
11,QVQLVESGGGLVQAGGSLRLSCAASGFIFRHNAMGWYRPAPGTEREFVAAISISGGSTYYADSVKGRFTISRDNAKNTVYLQMNSLKPEDTAVYYCNARSLGNTYLLYDYWGQGTQVTVSS,low polyreactivity
12,QVQLVESGGGLVQAGGSLRLSCAASGFIFRKYAMGWYRQAPGKERELVAAITSSGGSTYYADSVKGRFTISRDNAKNTVYLQMNSLKPEDTAVYYCAARLKQSGHDYWGQGTQVTVSS,high polyreactivity
13,QVQLVESGGGLVQAGGSLRLSCAASGFIFRKYGMGWYRQAPGKERELVAAIRFTGGSTRYADSVKGRFTISRDNAKNTVYLQMNSLKPEDTAVYYCNADRVYVRGRFTYDYWGQGTQVTVSS,low polyreactivity
14,QVQLVESGGGLVQAGGSLRLSCAASGFIFRNYAMGWNTQAPGKERELVAAISRSVGRTYYADSVKGRFTISRDNAKNTVYLQMNSLKPEDPAVYYCAVHIYGIGFYFTYLYVNGYDYWGQGTQVTVSS,high polyreactivity
15,QVQLVESGGGLVQAGGSLRLSCAASGFIFRNYAMGWYRQAPGKERELVAAISRGGRTNYADSVKGLFTISRDNAKNTVYLQMNSLKPEDTAVYYCNAVTVGLYDYWGQVTQVTVSS,high polyreactivity
16,QVQLVESGGGLVQAGGSLRLSCAASGFIFRQYAMGWYRQAPGKERELVAAISRSGGSTYYADSVKGRFTISRDNAKNTVYLQMNSLKPEDTAVYYCAVRYNQWYLNFGRYDYWGQGTQVTVSS,high polyreactivity
17,QVQLVESGGGLVQAGGSLRLSCAASGFIFRRNAMGWYRPAPGKERELVAAITKSGGSTYYADSVKGRFTISRDNAKNTVYLQMNSLKPEDTAVYYCAAPYSAKELYYRMDYWGQGTQVTVSS,high polyreactivity
18,QVQLVESGGGLVQAGGSLRLSCAASGFIFRRYAMGWYRQAPGKERELVAAITAGGGNTYYADSVKGRFTISRDNAKNTVYLQMHSLKPEDTAVYYCAAAGRWYYHGYNYWGQGTQVTVSS,high polyreactivity
19,QVQLVESGGGLVQAGGSLRLSCAASGFIFRRYAMGWYRQAPGKERELVASISWSGGSTYYADSVKGRFTISRDNAKNTVYLQMNSLKPEDTAVYYCAKGGYYSRYYSYGYWGQGTQVTVSS,high polyreactivity
20,QVQLVESGGGLVQAGGSLRLSCAASGFIFRRYSMGRYRQAPAKERELVAASTSGGGRTYYADSVKGRFTISRDNAKNTVYLQMNSLKPEDTAVYYCARVQRGDYDYWGQGTQVTVSS,high polyreactivity
21,QVQLVESGGGLVQAGGSLRLSCAASGFIFRRYVMGWYRQAPGKERELVAAISTSGGSTYYADSVKGRFTISRDNAKNSVYLQMNSLKPADTAVYYCNKAVGVTGFDYWGQGTEVTVSS,high polyreactivity
